Results reported in article PMC8519433.

Experiments:
[1] = molecular target: human CXCR1 on transfected L1.2 cells (human) (UniProt P25024)
[2] = molecular target: CXCL8 (6-77), produced in-house (human); test: SEC-MALS; CXCL8 at 4.2 mg/ml (0.5 mM), Superdex 75 10/300 GL, 20 mM Na phosphate pH 6.5, 100 mM NaCl, room temperature; a single species

human CXCR1 on transfected L1.2 cells (human), sequence (P25024 whole entry): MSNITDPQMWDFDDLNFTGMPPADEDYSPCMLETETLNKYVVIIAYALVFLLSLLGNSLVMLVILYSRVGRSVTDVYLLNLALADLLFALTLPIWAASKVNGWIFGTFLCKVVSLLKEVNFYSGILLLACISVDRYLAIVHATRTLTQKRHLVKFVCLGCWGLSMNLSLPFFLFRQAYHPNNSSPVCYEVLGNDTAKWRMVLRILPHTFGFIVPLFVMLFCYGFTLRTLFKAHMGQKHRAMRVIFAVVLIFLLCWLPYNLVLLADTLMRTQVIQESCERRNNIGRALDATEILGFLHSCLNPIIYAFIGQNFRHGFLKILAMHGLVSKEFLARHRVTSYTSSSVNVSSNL

Row | Substance | chemotaxis of CXCR1-transfected L1.2 cells (modified Boyden chamber, 5 h), serial dilutions of CXCL8, bell-shaped response; percentage of cells migrated at the optimal concentration [1] [%] | stoichiometry N [2]
1 | Recombinant CXCL8 (6-77), commercially available (ligand) | 20 | –
2 | CXCL8 (6-77), produced in-house (ligand) | 20 | 2
